Results: patent US20140087995A1 (published 2014)
Numbered stars: 1 amine (or outer) side, 2 acyl side, 3 side chain; on linkers, the order of the positions; unused ones are H or OH. Bridge positions count the residues as written; N and C are the ends. Side chains are listed from the residue outwards. Ends that are not written are not given here. * marks the point of attachment. C20 diacid = O=C(O)CCCCCCCCCCCCCCCCCCC(=O)*; γGlu = O=C(O)[C@H](CCC(=O)[*:2])N[*:1]

T1: human amylin receptor (amylin 3(a) receptor: human calcitonin receptor plus RAMP-3) (human, UniProt P30988 25-474; O60896 24-148)
T1 construct: whole, on cells; functional assay (II)a used the whole cells; also called hAmylin-R; hAmylinR
T1 sequence (looked up) 1: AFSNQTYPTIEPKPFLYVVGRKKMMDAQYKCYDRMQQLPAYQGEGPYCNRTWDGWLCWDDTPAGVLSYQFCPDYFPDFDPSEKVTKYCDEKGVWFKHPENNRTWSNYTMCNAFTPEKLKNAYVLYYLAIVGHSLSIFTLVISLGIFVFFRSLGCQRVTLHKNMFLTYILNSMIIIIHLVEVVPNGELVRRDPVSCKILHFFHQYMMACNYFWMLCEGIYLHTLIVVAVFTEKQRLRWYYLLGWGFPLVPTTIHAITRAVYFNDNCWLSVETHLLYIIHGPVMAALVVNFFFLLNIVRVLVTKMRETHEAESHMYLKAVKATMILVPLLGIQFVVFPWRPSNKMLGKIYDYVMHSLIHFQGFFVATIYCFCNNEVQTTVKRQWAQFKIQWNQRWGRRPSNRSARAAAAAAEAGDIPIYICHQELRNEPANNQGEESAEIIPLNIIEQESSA
T1 sequence (looked up) 2: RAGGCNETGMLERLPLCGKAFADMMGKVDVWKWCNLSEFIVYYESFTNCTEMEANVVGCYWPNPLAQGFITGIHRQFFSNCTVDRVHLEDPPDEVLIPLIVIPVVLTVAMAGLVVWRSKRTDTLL

T2: human calcitonin receptor (human, UniProt P30988 25-474)
T2 sequence (looked up): T1 sequence (looked up) 1

B1: N^ε1-[(4S)-4-carboxy-4-(19-carboxynonadecanoylamino)butanoyl]-[Arg17,Pro21,Pro27,His35]-h-amylin (peptide)
peptide: K([γGlu-C20 diacid])CNTATCATQRLANFLRHSSPNFGAIPSSTNVGSHTY-NH2
modifications: disulfide 2-7; N-terminus assumed
SMILES: CC[C@H](C)[C@H](NC(=O)[C@H](C)NC(=O)CNC(=O)[C@H](Cc1ccccc1)NC(=O)[C@H](CC(N)=O)NC(=O)[C@@H]1CCCN1C(=O)[C@H](CO)NC(=O)[C@H](CO)NC(=O)[C@H](Cc1c[nH]cn1)NC(=O)[C@H](CCCNC(=N)N)NC(=O)[C@H](CC(C)C)NC(=O)[C@H](Cc1ccccc1)NC(=O)[C@H](CC(N)=O)NC(=O)[C@H](C)NC(=O)[C@H](CC(C)C)NC(=O)[C@H](CCCNC(=N)N)NC(=O)[C@H](CCC(N)=O)NC(=O)[C@@H](NC(=O)[C@H](C)NC(=O)[C@@H]1CSSC[C@H](NC(=O)[C@@H](N)CCCCNC(=O)CC[C@H](NC(=O)CCCCCCCCCCCCCCCCCCC(=O)O)C(=O)O)C(=O)N[C@@H](CC(N)=O)C(=O)N[C@@H]([C@@H](C)O)C(=O)N[C@@H](C)C(=O)N[C@@H]([C@@H](C)O)C(=O)N1)[C@@H](C)O)C(=O)N1CCC[C@H]1C(=O)N[C@@H](CO)C(=O)N[C@@H](CO)C(=O)N[C@H](C(=O)N[C@@H](CC(N)=O)C(=O)N[C@H](C(=O)NCC(=O)N[C@@H](CO)C(=O)N[C@@H](Cc1c[nH]cn1)C(=O)N[C@H](C(=O)N[C@@H](Cc1ccc(O)cc1)C(N)=O)[C@@H](C)O)C(C)C)[C@@H](C)O
notes: also called compound 60
B2: N^ε1-[(4S)-4-carboxy-4-(19-carboxynonadecanoylamino)butanoyl]-[Glu14,Arg17,Pro21,Pro27,His35]-h-amylin (peptide)
peptide: K([γGlu-C20 diacid])CNTATCATQRLAEFLRHSSPNFGAIPSSTNVGSHTY-NH2
modifications: disulfide 2-7; N-terminus assumed
SMILES: CC[C@H](C)[C@H](NC(=O)[C@H](C)NC(=O)CNC(=O)[C@H](Cc1ccccc1)NC(=O)[C@H](CC(N)=O)NC(=O)[C@@H]1CCCN1C(=O)[C@H](CO)NC(=O)[C@H](CO)NC(=O)[C@H](Cc1c[nH]cn1)NC(=O)[C@H](CCCNC(=N)N)NC(=O)[C@H](CC(C)C)NC(=O)[C@H](Cc1ccccc1)NC(=O)[C@H](CCC(=O)O)NC(=O)[C@H](C)NC(=O)[C@H](CC(C)C)NC(=O)[C@H](CCCNC(=N)N)NC(=O)[C@H](CCC(N)=O)NC(=O)[C@@H](NC(=O)[C@H](C)NC(=O)[C@@H]1CSSC[C@H](NC(=O)[C@@H](N)CCCCNC(=O)CC[C@H](NC(=O)CCCCCCCCCCCCCCCCCCC(=O)O)C(=O)O)C(=O)N[C@@H](CC(N)=O)C(=O)N[C@@H]([C@@H](C)O)C(=O)N[C@@H](C)C(=O)N[C@@H]([C@@H](C)O)C(=O)N1)[C@@H](C)O)C(=O)N1CCC[C@H]1C(=O)N[C@@H](CO)C(=O)N[C@@H](CO)C(=O)N[C@H](C(=O)N[C@@H](CC(N)=O)C(=O)N[C@H](C(=O)NCC(=O)N[C@@H](CO)C(=O)N[C@@H](Cc1c[nH]cn1)C(=O)N[C@H](C(=O)N[C@@H](Cc1ccc(O)cc1)C(N)=O)[C@@H](C)O)C(C)C)[C@@H](C)O
B3: N^ε1-[(4S)-4-carboxy-4-(19-carboxynonadecanoylamino)butanoyl]-[Glu14,Arg17,Pro21,Pro27,His34,Glu35]-h-amylin (peptide)
peptide: K([γGlu-C20 diacid])CNTATCATQRLAEFLRHSSPNFGAIPSSTNVGHETY-NH2
modifications: disulfide 2-7; N-terminus assumed
SMILES: CC[C@H](C)[C@H](NC(=O)[C@H](C)NC(=O)CNC(=O)[C@H](Cc1ccccc1)NC(=O)[C@H](CC(N)=O)NC(=O)[C@@H]1CCCN1C(=O)[C@H](CO)NC(=O)[C@H](CO)NC(=O)[C@H](Cc1c[nH]cn1)NC(=O)[C@H](CCCNC(=N)N)NC(=O)[C@H](CC(C)C)NC(=O)[C@H](Cc1ccccc1)NC(=O)[C@H](CCC(=O)O)NC(=O)[C@H](C)NC(=O)[C@H](CC(C)C)NC(=O)[C@H](CCCNC(=N)N)NC(=O)[C@H](CCC(N)=O)NC(=O)[C@@H](NC(=O)[C@H](C)NC(=O)[C@@H]1CSSC[C@H](NC(=O)[C@@H](N)CCCCNC(=O)CC[C@H](NC(=O)CCCCCCCCCCCCCCCCCCC(=O)O)C(=O)O)C(=O)N[C@@H](CC(N)=O)C(=O)N[C@@H]([C@@H](C)O)C(=O)N[C@@H](C)C(=O)N[C@@H]([C@@H](C)O)C(=O)N1)[C@@H](C)O)C(=O)N1CCC[C@H]1C(=O)N[C@@H](CO)C(=O)N[C@@H](CO)C(=O)N[C@H](C(=O)N[C@@H](CC(N)=O)C(=O)N[C@H](C(=O)NCC(=O)N[C@@H](Cc1c[nH]cn1)C(=O)N[C@@H](CCC(=O)O)C(=O)N[C@H](C(=O)N[C@@H](Cc1ccc(O)cc1)C(N)=O)[C@@H](C)O)C(C)C)[C@@H](C)O
notes: also called compound 107
B4: N^ε1-[(4S)-4-carboxy-4-(19-carboxynonadecanoylamino)butanoyl]-[Asp14,Arg17,Pro21,Pro27,Pro34,Glu35]-h-amylin (peptide)
peptide: K([γGlu-C20 diacid])CNTATCATQRLADFLRHSSPNFGAIPSSTNVGPETY-NH2
modifications: disulfide 2-7; N-terminus assumed
SMILES: CC[C@H](C)[C@H](NC(=O)[C@H](C)NC(=O)CNC(=O)[C@H](Cc1ccccc1)NC(=O)[C@H](CC(N)=O)NC(=O)[C@@H]1CCCN1C(=O)[C@H](CO)NC(=O)[C@H](CO)NC(=O)[C@H](Cc1c[nH]cn1)NC(=O)[C@H](CCCNC(=N)N)NC(=O)[C@H](CC(C)C)NC(=O)[C@H](Cc1ccccc1)NC(=O)[C@H](CC(=O)O)NC(=O)[C@H](C)NC(=O)[C@H](CC(C)C)NC(=O)[C@H](CCCNC(=N)N)NC(=O)[C@H](CCC(N)=O)NC(=O)[C@@H](NC(=O)[C@H](C)NC(=O)[C@@H]1CSSC[C@H](NC(=O)[C@@H](N)CCCCNC(=O)CC[C@H](NC(=O)CCCCCCCCCCCCCCCCCCC(=O)O)C(=O)O)C(=O)N[C@@H](CC(N)=O)C(=O)N[C@@H]([C@@H](C)O)C(=O)N[C@@H](C)C(=O)N[C@@H]([C@@H](C)O)C(=O)N1)[C@@H](C)O)C(=O)N1CCC[C@H]1C(=O)N[C@@H](CO)C(=O)N[C@@H](CO)C(=O)N[C@H](C(=O)N[C@@H](CC(N)=O)C(=O)N[C@H](C(=O)NCC(=O)N1CCC[C@H]1C(=O)N[C@@H](CCC(=O)O)C(=O)N[C@H](C(=O)N[C@@H](Cc1ccc(O)cc1)C(N)=O)[C@@H](C)O)C(C)C)[C@@H](C)O
B5: N^ε1-[(4S)-4-carboxy-4-(19-carboxynonadecanoylamino)butanoyl]-[Glu14,Arg17,Pro21,Pro27,Arg34,Glu35]-h-amylin (peptide)
peptide: K([γGlu-C20 diacid])CNTATCATQRLAEFLRHSSPNFGAIPSSTNVGRETY-NH2
modifications: disulfide 2-7; N-terminus assumed
SMILES: CC[C@H](C)[C@H](NC(=O)[C@H](C)NC(=O)CNC(=O)[C@H](Cc1ccccc1)NC(=O)[C@H](CC(N)=O)NC(=O)[C@@H]1CCCN1C(=O)[C@H](CO)NC(=O)[C@H](CO)NC(=O)[C@H](Cc1c[nH]cn1)NC(=O)[C@H](CCCNC(=N)N)NC(=O)[C@H](CC(C)C)NC(=O)[C@H](Cc1ccccc1)NC(=O)[C@H](CCC(=O)O)NC(=O)[C@H](C)NC(=O)[C@H](CC(C)C)NC(=O)[C@H](CCCNC(=N)N)NC(=O)[C@H](CCC(N)=O)NC(=O)[C@@H](NC(=O)[C@H](C)NC(=O)[C@@H]1CSSC[C@H](NC(=O)[C@@H](N)CCCCNC(=O)CC[C@H](NC(=O)CCCCCCCCCCCCCCCCCCC(=O)O)C(=O)O)C(=O)N[C@@H](CC(N)=O)C(=O)N[C@@H]([C@@H](C)O)C(=O)N[C@@H](C)C(=O)N[C@@H]([C@@H](C)O)C(=O)N1)[C@@H](C)O)C(=O)N1CCC[C@H]1C(=O)N[C@@H](CO)C(=O)N[C@@H](CO)C(=O)N[C@H](C(=O)N[C@@H](CC(N)=O)C(=O)N[C@H](C(=O)NCC(=O)N[C@@H](CCCNC(=N)N)C(=O)N[C@@H](CCC(=O)O)C(=O)N[C@H](C(=O)N[C@@H](Cc1ccc(O)cc1)C(N)=O)[C@@H](C)O)C(C)C)[C@@H](C)O

Target: T1, human amylin receptor (amylin 3(a) …)
Assay: SPA competition binding, displacement of 125I-rat amylin, membranes of BHK amylin 3(a)/CRE-luc cells
Experimental: The binding assay was performed using scintillation proximity assay (SPA) beads (RPNQ0001) from PerkinElmer and cell membranes from the Amylin 3(a)/CRE-luc cells (as described in Assay (II)) were used. Membranes were prepared in the following way; the cells were rinsed with PBS and incubated with Versene for approximately 5 min before harvesting. The cells were flushed with PBS and the cell-suspension was centrifuged for 5 min at 1000 rpm. Cells were homogenized (ultrathurrax) in a buffer containing 20 mM Na-HEPES and 10 mM EDTA (pH 7.4) and centrifuged at 20.000 rpm for 15 min. The resulting pellet was resuspended, homogenized and centrifuged (20.000 rpm, 15 min) in a buffer containing 20 mM Na-HEPES and 0.1 mM EDTA (pH 7.4, buffer 2). The resulting pellet was resuspended in buffer 2 and protein concentration was measured (BCA protein Assay, Pierce). The homogenate was kept cold during the whole procedure. The membranes were kept at −80° C. until use. The assay was performed in a 384 well Optiplate (PerkinElmer) in a total volume of 40 ul. Membranes were mixed with SPA beads. Final concentration of membranes 35 ng/μL final and SPA beads was 0.05 mg/well. Test-compounds were dissolved in DMSO and further diluted in assay buffer (50 mM Hepes, pH 7.4, 1 mM CaCl2, 5 mM MgCl₂, 0.1% OA and 0.02% Tween20). […] The final mixture was incubated with shaking at 400 rpm for 120 min at 25° C. prior to centrifugation (1500 rpm, 10 min). Samples were analyzed on TopCounter™ (Packard). The IC₅₀ was calculated using (one site binding competition analysis) GraphPad Prism5 as a measure of receptor affinity.

| Binder | IC50 [nM] |
| --- | --- |
| B1 | 0.695 |
| B2 | 0.992 |
| B3 | 0.387 |
| B4 | 0.196 |
| B5 | 0.232 |

Target: T1, human amylin receptor (amylin 3(a) …)
Assay: cell-based or functional assay

| Binder | Ratio hCT/hAmylin funct. | hAmylin-R funct. EC50 (pM) |
| --- | --- | --- |
| B1 | 15.3 | 351 |
| B2 |  | 425 |
| B3 | 6.3 | 405 |
| B4 | 3.9 | 288 |
| B5 | 6.5 | 421 |

Target: T2, human calcitonin receptor
Assay: cell-based or functional assay

| Binder | hCTR funct. EC50 (pM) |
| --- | --- |
| B1 | 5360 |
| B2 | 5580 |
| B3 | 2540 |
| B4 | 1120 |
| B5 | 2740 |
